Measured values from article PMC5665175 (Immunity, 2017).

B1: 6xHis-Sumo-Imd(3-273) (domain or fragment, D. melanogaster, UniProt Q7K4Z4 3-273, looked up)
chain: KLRNLLPTIFGGKEAQNPTPVEGRLEKDAAPVDDNEPDNNNSGALALPSTAGTPTASSDLTESVLRELSDPNYNSMDVVHSANIPGTLSNVQTNNTMNVHSAQQQVVMNFSNANNLHFGSVYNFNQNLSACSSRKGSTSTAEESVASPDGKPRASATRKTVSIVAMMQSQEEPDVRLLDVVSTHLGEGWKQVMRDLGMSEGQIDQAIIDHQMHGNIREVIYQLLLQWIRSSADGVATVGRLTTLLWESQHRDCVQRMKLVWKALEKRKTNS
B2: 6xHis-Sumo-Imd(31-167) (domain or fragment, D. melanogaster, UniProt Q7K4Z4 31-167, looked up)
chain: AAPVDDNEPDNNNSGALALPSTAGTPTASSDLTESVLRELSDPNYNSMDVVHSANIPGTLSNVQTNNTMNVHSAQQQVVMNFSNANNLHFGSVYNFNQNLSACSSRKGSTSTAEESVASPDGKPRASATRKTVSIVA
B3: 6xHis-Sumo-Imd(31-273) (domain or fragment, D. melanogaster, UniProt Q7K4Z4 31-273, looked up)
chain: AAPVDDNEPDNNNSGALALPSTAGTPTASSDLTESVLRELSDPNYNSMDVVHSANIPGTLSNVQTNNTMNVHSAQQQVVMNFSNANNLHFGSVYNFNQNLSACSSRKGSTSTAEESVASPDGKPRASATRKTVSIVAMMQSQEEPDVRLLDVVSTHLGEGWKQVMRDLGMSEGQIDQAIIDHQMHGNIREVIYQLLLQWIRSSADGVATVGRLTTLLWESQHRDCVQRMKLVWKALEKRKTNS
B4: 6xHis-Sumo-Imd(31-273) Δ76-109 (domain or fragment, D. melanogaster, UniProt Q7K4Z4 31-273, looked up)
chain: AAPVDDNEPDNNNSGALALPSTAGTPTASSDLTESVLRELSDPNYMNFSNANNLHFGSVYNFNQNLSACSSRKGSTSTAEESVASPDGKPRASATRKTVSIVAMMQSQEEPDVRLLDVVSTHLGEGWKQVMRDLGMSEGQIDQAIIDHQMHGNIREVIYQLLLQWIRSSADGVATVGRLTTLLWESQHRDCVQRMKLVWKALEKRKTNS
B5: 6xHis-Sumo-Imd(31-273) Δ144-177 (domain or fragment, D. melanogaster, UniProt Q7K4Z4 31-273, looked up)
chain: AAPVDDNEPDNNNSGALALPSTAGTPTASSDLTESVLRELSDPNYNSMDVVHSANIPGTLSNVQTNNTMNVHSAQQQVVMNFSNANNLHFGSVYNFNQNLSACSSRKGSTSTARLLDVVSTHLGEGWKQVMRDLGMSEGQIDQAIIDHQMHGNIREVIYQLLLQWIRSSADGVATVGRLTTLLWESQHRDCVQRMKLVWKALEKRKTNS
B6: 6xHis-Sumo-Imd(31-273) Δ114-121 (domain or fragment, D. melanogaster, UniProt Q7K4Z4 31-273, looked up)
chain: AAPVDDNEPDNNNSGALALPSTAGTPTASSDLTESVLRELSDPNYNSMDVVHSANIPGTLSNVQTNNTMNVHSAQQQVVMNFSSVYNFNQNLSACSSRKGSTSTAEESVASPDGKPRASATRKTVSIVAMMQSQEEPDVRLLDVVSTHLGEGWKQVMRDLGMSEGQIDQAIIDHQMHGNIREVIYQLLLQWIRSSADGVATVGRLTTLLWESQHRDCVQRMKLVWKALEKRKTNS

Molecular target: the molecule itself
Experiment: SDD-AGE

Binding result, binds:
ATQGIGSIALTNSTAVTFGDKHFYEGPVTIQQFLIDNRDKWK (domain or fragment, D. melanogaster, UniProt Q9GNK5 201-242, looked up) [6xHis-Sumo-PGRP-LC(201-242) D215A]
ATQGIGSIALTNSTDVTFGDKHFYAGPVTIQQFLIDNRDKWK (domain or fragment, D. melanogaster, UniProt Q9GNK5 201-242, looked up) [6xHis-Sumo-PGRP-LC(201-242) E225A]
DLMNSINSIQTLGNVNISNSTNVHIGNVTNINGNIQIIADGLTQNRRD (domain or fragment, D. melanogaster, UniProt Q9VXN9 80-127, looked up) [6xHis-Sumo-PGRP-LE(80-127) WT]
DLMNSINSIQTLGNVNISNATNVHIGNVTNINGNIQIIADGLTQNRRD (domain or fragment, D. melanogaster, UniProt Q9VXN9 80-127, looked up) [6xHis-Sumo-PGRP-LE(80-127) S99A]
DLMNSINSIQTLGNVNISNSTNVHIGNVTNINGNIQAIADGLTQNRRD (domain or fragment, D. melanogaster, UniProt Q9VXN9 80-127, looked up) [6xHis-Sumo-PGRP-LE(80-127) I116A]
DLMNSINSIQTLGNVNISNSTNVHAGNVTNINGNIQIIADGLTQNRRD (domain or fragment, D. melanogaster, UniProt Q9VXN9 80-127, looked up) [6xHis-Sumo-PGRP-LE(80-127) I104A]
DLMNSINSIQTLGNVNASNSTNVHIGNVTNINGNIQIIADGLTQNRRD (domain or fragment, D. melanogaster, UniProt Q9VXN9 80-127, looked up) [6xHis-Sumo-PGRP-LE(80-127) I96A]

Molecular target: the molecule itself
Experiment: X-ray diffraction from fibrils

Binding result, binds:
NVHSAQQQVVMNFSNANNLHFGSVYN (domain or fragment, D. melanogaster, UniProt Q7K4Z4 100-125, looked up) [6xHis-Sumo-Imd(100-125)]

Molecular target: the molecule itself
Experiment: SEC

Binding result, binds:
ATQGIGSIALTNSTDVTFGDKHFYEGPVTIQQFLIDNRDKWK (domain or fragment, D. melanogaster, UniProt Q9GNK5 201-242, looked up) [6xHis-Sumo-PGRP-LC(201-242) WT]

Molecular target: the molecule itself
Experiment: ThT fluorescence of amyloid polymerisation

Binding result, binds:
B1

Molecular target: the molecule itself
Experiment: SDD-AGE
Remark: another data set of the same source

Binding result, binds:
B2
B3
B4
B5
B6
